In article PMC12412668:

Tests used:
[1] = biological target: T1, CD96 on primary human CD4^+ T cells and PBMCs (human (endogenous in primary CD4^+ T cells and PBMCs)) (UniProt P40200)
T1 sequence: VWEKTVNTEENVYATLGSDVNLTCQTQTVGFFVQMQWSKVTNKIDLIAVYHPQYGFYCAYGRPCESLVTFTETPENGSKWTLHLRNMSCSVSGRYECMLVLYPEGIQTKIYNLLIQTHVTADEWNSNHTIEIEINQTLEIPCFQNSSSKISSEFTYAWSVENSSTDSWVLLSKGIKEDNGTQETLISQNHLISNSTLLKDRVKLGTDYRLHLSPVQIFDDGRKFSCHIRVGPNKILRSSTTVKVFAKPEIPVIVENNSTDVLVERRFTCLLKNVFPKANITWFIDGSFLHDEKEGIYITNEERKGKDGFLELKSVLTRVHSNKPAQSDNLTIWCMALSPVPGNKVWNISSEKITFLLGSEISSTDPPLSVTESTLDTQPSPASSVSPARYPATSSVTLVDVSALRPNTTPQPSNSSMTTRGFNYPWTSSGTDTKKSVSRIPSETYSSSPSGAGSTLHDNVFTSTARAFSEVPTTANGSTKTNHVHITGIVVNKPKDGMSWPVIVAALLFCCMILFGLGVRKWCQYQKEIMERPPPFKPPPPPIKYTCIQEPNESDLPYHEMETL

[2] = biological target: T1, CD96 on primary human CD4^+ T cells and PBMCs (human (endogenous in primary CD4^+ T cells and PBMCs)); remark: listed apart in the source

Binder	adherence of primary CD4^+ T cells (mock-infected or infected with WT HIV-1) to wells coated with CD155-Fc, percent adherent cells by flow cytometry [1] [%]	IFN-γ release (ELISpot) of PBMCs stimulated with HCMV pp65 peptide and costimulated with soluble CD155 (5 μg/ml), fold change relative to pp65 alone [2] [fold]
Recombinant human CD155-Fc chimera (carrier-free) (Fc fusion) WPPPGTGDVVVQAPTQVPGFLGDSVTLPCYLQVPNMEVTHVSQLTWARHGESGSMAVFHQTQGPSYSESKRLEFVAARLGAELRNASLRMFGLRVEDEGNYTCLFVTFPQGSRSVDIWLRVLAKPQNTAEVQKVQLTGEPVPMARCVSTGGRPPAQITWHSDLGGMPNTSQVPGFLSGTVTVTSLWILVPSSQVDGKNVTCKVEHESFEKPQLLTVNLTVYYPPEVSISGYDNNWYLGQNEATLTCDARSNPEPTGYNWSTTMGPLPPFAVAQGAQLLIRPVDKPINTTLICNVTNALGARQAELTVQVKEGPPSEHSGISRN	20	
Human CD155 (PVR) Fc chimera recombinant protein (Fc fusion) WPPPGTGDVVVQAPTQVPGFLGDSVTLPCYLQVPNMEVTHVSQLTWARHGESGSMAVFHQTQGPSYSESKRLEFVAARLGAELRNASLRMFGLRVEDEGNYTCLFVTFPQGSRSVDIWLRVLAKPQNTAEVQKVQLTGEPVPMARCVSTGGRPPAQITWHSDLGGMPNTSQVPGFLSGTVTVTSLWILVPSSQVDGKNVTCKVEHESFEKPQLLTVNLTVYYPPEVSISGYDNNWYLGQNEATLTCDARSNPEPTGYNWSTTMGPLPPFAVAQGAQLLIRPVDKPINTTLICNVTNALGARQAELTVQVKEGPPSEHSGISRN		< 8
